{"source": "paper PMC8794802", "key": {"[1]": {"target": "T1, Pus7 D256A (Saccharomyces cerevisiae, UniProt Q08647 1-676, D256A)", "T1 sequence": "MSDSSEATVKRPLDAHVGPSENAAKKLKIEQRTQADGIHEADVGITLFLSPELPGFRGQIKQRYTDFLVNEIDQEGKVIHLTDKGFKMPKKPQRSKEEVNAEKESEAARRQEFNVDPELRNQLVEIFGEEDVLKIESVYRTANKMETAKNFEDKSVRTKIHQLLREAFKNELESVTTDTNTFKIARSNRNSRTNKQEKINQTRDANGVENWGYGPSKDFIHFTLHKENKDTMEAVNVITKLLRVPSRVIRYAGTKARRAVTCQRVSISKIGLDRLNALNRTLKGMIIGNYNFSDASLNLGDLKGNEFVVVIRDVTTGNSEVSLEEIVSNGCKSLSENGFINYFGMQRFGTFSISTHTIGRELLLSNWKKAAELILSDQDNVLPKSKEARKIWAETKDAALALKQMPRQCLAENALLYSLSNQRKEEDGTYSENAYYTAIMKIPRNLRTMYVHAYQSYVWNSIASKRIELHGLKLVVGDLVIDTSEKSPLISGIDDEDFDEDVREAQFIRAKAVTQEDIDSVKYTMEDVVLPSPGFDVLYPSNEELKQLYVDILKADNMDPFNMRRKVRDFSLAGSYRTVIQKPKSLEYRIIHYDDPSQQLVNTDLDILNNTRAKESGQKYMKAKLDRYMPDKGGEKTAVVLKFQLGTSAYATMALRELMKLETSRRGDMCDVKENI", "assay": "EMSA"}, "[2]": {"target": "T2, Pus7 D256A/F307A (Saccharomyces cerevisiae, UniProt Q08647 1-676, D256A;F307A)", "T2 sequence": "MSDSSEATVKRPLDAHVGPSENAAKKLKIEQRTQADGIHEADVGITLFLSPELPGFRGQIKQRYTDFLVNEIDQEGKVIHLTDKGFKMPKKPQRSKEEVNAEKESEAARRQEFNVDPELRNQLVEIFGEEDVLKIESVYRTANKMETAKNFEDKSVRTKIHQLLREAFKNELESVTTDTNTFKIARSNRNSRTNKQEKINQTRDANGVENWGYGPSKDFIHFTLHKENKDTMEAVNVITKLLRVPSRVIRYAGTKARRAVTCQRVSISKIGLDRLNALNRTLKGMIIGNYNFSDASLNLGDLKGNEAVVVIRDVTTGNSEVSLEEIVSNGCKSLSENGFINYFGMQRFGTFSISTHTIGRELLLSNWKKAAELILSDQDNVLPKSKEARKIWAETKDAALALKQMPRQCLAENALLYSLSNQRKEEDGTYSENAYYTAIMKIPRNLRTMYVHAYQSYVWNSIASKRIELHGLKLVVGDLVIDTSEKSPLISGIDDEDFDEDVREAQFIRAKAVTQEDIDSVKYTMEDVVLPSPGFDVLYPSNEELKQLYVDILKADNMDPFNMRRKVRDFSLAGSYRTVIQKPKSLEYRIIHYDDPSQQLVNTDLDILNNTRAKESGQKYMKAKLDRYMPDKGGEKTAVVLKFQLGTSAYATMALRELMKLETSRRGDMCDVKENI", "assay": "EMSA"}, "[3]": {"target": "T3, Pus1 (Saccharomyces cerevisiae, UniProt Q12211 1-544)", "T3 sequence": "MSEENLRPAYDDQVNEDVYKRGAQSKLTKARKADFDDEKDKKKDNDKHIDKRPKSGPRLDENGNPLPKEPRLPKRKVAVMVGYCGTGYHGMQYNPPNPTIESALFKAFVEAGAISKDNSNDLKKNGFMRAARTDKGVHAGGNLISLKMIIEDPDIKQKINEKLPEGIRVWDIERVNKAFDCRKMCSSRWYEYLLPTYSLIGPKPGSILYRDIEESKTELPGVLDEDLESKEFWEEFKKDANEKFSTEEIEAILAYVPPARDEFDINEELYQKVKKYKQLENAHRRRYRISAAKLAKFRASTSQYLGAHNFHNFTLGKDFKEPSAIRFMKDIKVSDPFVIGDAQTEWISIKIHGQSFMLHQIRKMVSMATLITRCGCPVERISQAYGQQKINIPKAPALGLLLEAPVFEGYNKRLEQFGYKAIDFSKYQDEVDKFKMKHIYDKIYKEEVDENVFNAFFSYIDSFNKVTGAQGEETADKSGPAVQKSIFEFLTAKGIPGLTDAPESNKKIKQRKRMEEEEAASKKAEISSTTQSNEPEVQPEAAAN", "assay": "EMSA"}, "[4]": {"target": "T1, Pus7 D256A", "assay": "stopped-flow fluorescence"}}}
{"binder": "CDC8 (cdc8-FL, 61 nt) (ssRNA) RNA: GUCAAUCACGAUUGUAGACGUUACUAAUAAGGGCAUUCAGGAAGUUGAAGCGCUUAUUUGG", "values": [{"measurement": "Kd", "setting": "[1]", "value": "0.06 ± 0.015", "unit": "µM"}, {"measurement": "Kd", "setting": "[2]", "value": "0.34 ± 0.17", "unit": "µM"}, {"measurement": "binding result", "setting": "[3]", "value": "binds"}, {"measurement": "Kd", "setting": "[4]", "value": "~0.085", "unit": "µM"}]}
